The values that follow come from patent US9751932B2, “Anti-big-endothelin-1 (big-ET-1) antibodies and uses thereof” (Regeneron Pharmaceuticals, Inc., priority 2012, dated 2017).

Substitutions are numbered along the chain they refer to. Names and notes keep the numbering of the source. Some results are limits rather than exact numbers.

The target of test [1] is T1, human big-ET-1 (SEQ ID NO:434) (Homo sapiens, UniProt P05305).
T1 sequence (P05305 53-90 limits assumed): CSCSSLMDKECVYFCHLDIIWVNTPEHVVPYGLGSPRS
In words: Surface plasmon resonance (Biacore) binding, mAb capture format, 37° C. The note with it: for ka / kd: analyte human big-ET-1, mAb capture. As to the method: (§1) Measurements were conducted on a T200 Biacore instrument (Biacore Life Sciences division of GE Healthcare, Piscataway, N.J.). […] Different concentrations of small-ET-1 (SEQ ID NO:435), human big-ET-1 (SEQ ID NO:434) or mouse big-ET-1 (SEQ ID NO:437) were injected over the anti-big-ET-1 captured surfaces at a flow rate of 100 μl/min. Peptide binding was monitored for 3 min while dissociation of mAb-bound peptide was monitored for 4 min in HBST running buffer (0.01 M HEPES pH 7.4, 0.15 M NaCl, 3 mM EDTA, 0.005% v/v Surfactant P20). Kinetic association (ka) and dissociation (kd) rate constants were determined by processing and fitting the data to a 1:1 binding model using Scrubber 2.0 curve fitting software.
In general terms: Surface plasmon resonance follows binding to a sensor surface in real time, without labels.

Test [2] addresses T2, mouse big-ET-1 (SEQ ID NO:437) (Mus musculus, UniProt P22387).
T2 sequence (P22387 53-91 limits assumed): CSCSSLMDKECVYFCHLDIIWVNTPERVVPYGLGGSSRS
Described as above. The note with it: for ka / kd / Kd: analyte mouse big-ET-1, mAb capture; for Kd: KD=kd/ka. As for the experimental part:
as §1

B1: H4H6329P: anti-big-ET-1 antibody, human IgG4 Fc; HCVR/LCVR SEQ ID NO: 194/202 (antibody, V domains shown)
VH: QVQLVESGGGVVQPGRSLRLSCAASGFTFGSYGMHWVRQAPGKGLEWVAVIWYDGSDEYYTDSVKGRFTVSRDNSKYTLYLQMNSLRADDTAVYYCARDGYRTRGNYFDYWGQGTLVTVSS
VL: DVVMTQSPLSLPVALGQPASISCRSSQSLVYSDGNTYLNWFQQRPGQSPRRLIYKVSNRDSGVPDRFGGSGSGTDFTLKISRVEAEDVGLYYCMQGTHWPPTFGGGTKVEIK
modifications: human IgG4 Fc
Turning to B1, the results for the ka in test [1] and in test [2] were 595000 M/s and 11600 M/s, respectively. Moreover, the kd in test [1] came to 0.000176 s⁻¹; in test [2], 0.000223 s⁻¹.

B2: H4H6317P: anti-big-ET-1 antibody, human IgG4 Fc; HCVR/LCVR SEQ ID NO: 130/138 (antibody, V domains shown)
VH: QVQLVESGGGVVQPGRSLRLSCAASGFTFSSYGMHWVRQAPGKGLEWVAVLWYDGRNKYYADSVKGRFTISRDNSKNTLYLQMNSLRAEDTAVYYCARSYDAFDIWGQGTMVTVSS
VL: DIQMTQSPSTLSASVGDRVTITCRASQSISSWLAWFQQGPGRAPKLLIYKASTLQSGVPSRFSGSGSGTEFTLTISSLQPDDFATYYCQQYRSYSPTFGQGTKVEIK
modifications: human IgG4 Fc
As to B2, in test [1], the “binding to human big-ET-1 (in words)” value is listed as “high affinity binding”, the ka stood at 36700 M/s and the kd was determined as 0.000199 s⁻¹. Also, in test [2], the “binding to mouse big-ET-1 (in words)” value was “did not show any binding” and the Kd (as a rule, the free concentration of one partner at which half of the binding sites on the other are occupied at equilibrium, for simple one-to-one binding) was over 1000 nM.

B3: H4H6323P: anti-big-ET-1 antibody, human IgG4 Fc; HCVR/LCVR SEQ ID NO: 146/154 (antibody, V domains shown)
VH: QITLKESGPPLVKPTQTLTLTCTFSGFSLNTNGMGVGWIRQPPGKALEWLTLIYWNDDKRYSPSLKTRLTITKDTSKNQVVLTMTNMDPVDTATYYCARFGSGTYWGQGTLVTVSS
VL: DIVMTQSPLSLPVTPGEPASISCRSSQSLLHSYGYNFLDWFLQKPGQSPQLLIYLGSHRASGVPDRFSGSGSGTDFTLKISRVEAEDVGVYYCMQALQTPLTFGGGTKVEIK
modifications: human IgG4 Fc
In test [1], B3 yielded a ka of 565000 M/s and a kd of 0.00569 s⁻¹. In test [2], the ka was found to be 580000 M/s and the kd was found to be 0.0192 s⁻¹.

B4: H4H6330P: anti-big-ET-1 antibody, human IgG4 Fc; HCVR/LCVR SEQ ID NO: 210/218 (antibody, V domains shown)
VH: EVQLVESGGGLVQPGGSLRLSCAASGFTFSNYAMSWVRQAPGKGLEWVSAVSGSGVGTYYADSVKGRFTISRDNSKNTLYLQMKSLSAEDTALYYCTKTLGGTHAFDIWGQGTMVTVSS
VL: DIQMTQSPSTLSASVGDRVTITCRASQSISRWLAWYQQKPGKAPKLLIYKASSLESGVPSRFSGSGSGTEFTVTINSLQPDDFATYYCQQYNSYSSFGQGTKLEIK
modifications: human IgG4 Fc
On to B4, for which the ka in test [1] was determined as 1.42e+06 M/s; in test [2], 1.5e+06 M/s. Besides, the kd was found to be 0.0324 s⁻¹ in test [1] and 0.072 s⁻¹ in test [2].

B5: H4H6345P: anti-big-ET-1 antibody, human IgG4 Fc; HCVR/LCVR SEQ ID NO: 354/362 (antibody, V domains shown)
VH: EVQLVESGGGLVQPGGSLRLSCAASGFIFSSYAMTWVRQAPGKGLEWVSAISGSGVSTYYADSVKGRFTISRDNSKNTLYLQMNSLRIEDTAVYYCGKARTGTHAFDIWGQGTMVTVSS
VL: B4 VL with S56T, V73L, N76S, A84G, Q99P, L103V, E104D
modifications: human IgG4 Fc
In the case of B5, the ka in test [1] was 663000 M/s; in test [2] it was 1.5e+06 M/s. For the same molecule, the kd in test [1] was determined as 0.058 s⁻¹; in test [2], 0.0974 s⁻¹.

B6: H1M6492N: anti-big-ET-1 hybridoma antibody, H1M Fc; HCVR/LCVR SEQ ID NO: 34/42 (antibody, V domains shown)
VH: EVQLVESGGGLVKPGGSLRVSCVASGFTFSNAWMTWVRQTPGKGLECVGRIKSRTDGGTVDYVAPVKGRFTISRDDSKNTLYLQMNSLKAEDTAVYYCRADLDYWGQGTLVTVSS
VL: DVVMTQSPLSLPVSLGQPASISCRSSQSLVHSDGITYLNWFQQRPGQSPRRLIYKISNRDSGVPDRFSGSGSGTDFTLKFSRVEAEDVGVYFCMQGTHWPYTFGQGTKLEIK
modifications: mouse Fc
For the molecule B6, in test [1], the “binding to human big-ET-1 (in words)” value is given as “high affinity binding”, the ka was determined as 248000 M/s and the kd came out at 0.0016 s⁻¹. Moreover, in test [2], the “binding to mouse big-ET-1 (in words)” value is given as “did not show any binding” and the Kd was over 1000 nM.

B7: H1M6494N: anti-big-ET-1 hybridoma antibody, H1M Fc; HCVR/LCVR SEQ ID NO: 50/58 (antibody, V domains shown)
VH: B6 VH
VL: B6 VL
modifications: mouse Fc
Regarding B7, in test [1], the “binding to human big-ET-1 (in words)” value was “high affinity binding”, the ka was 239000 M/s and the kd was determined as 0.00169 s⁻¹. Besides, in test [2], the “binding to mouse big-ET-1 (in words)” value is on record as “did not show any binding” and the Kd is over 1000 nM.

B8: H4H6353P: anti-big-ET-1 antibody, human IgG4 Fc; HCVR/LCVR SEQ ID NO: 386/394 (antibody, V domains shown)
VH: EVQLVESGGGLVKPGGSLRLSCAASGFSFNYAWMSWVRQAPGKGLEWIGRIKSKINGGTTDYTAPVKGRFTISRDDSKNTLYLQMNSLKTEDTAVYYCRGDEDFWGQGTLVTVSS
VL: B1 VL with A14T, N35F, Q42R, G68S, K79R, L90I, P101Y, G105Q, V109L
modifications: human IgG4 Fc
On to B8, for which the ka amounted to 1.14e+06 M/s in test [1] and 2900 M/s in test [2]. Also, the kd in test [1] came to 0.00116 s⁻¹; in test [2], 0.00236 s⁻¹.
